B1: SUMO-I3 (single domain antibody I3 fused to an N-terminal 6X His-SUMO-FLAG tag) (VHH)
VHH: EVQLVESGGGLVQPGGSLRLSCAASGFTFSSYAMSWVRQAPGKGLEWVSAINSGGGSTSYADSVKGRFTISRDNAKNTLYLQMNSLKPEDTAVYYCAKARTGWSLAVPSFGSWGQGTQVTVSS
B2: MBP-I3 (single domain antibody I3 with N-terminal MBP fusion and C-terminal 6X His-tag) (VHH)
VHH: EVQLVESGGGLVQPGGSLRLSCAASGFTFSSYAMSWVRQAPGKGLEWVSAINSGGGSTSYADSVKGRFTISRDNAKNTLYLQMNSLKPEDTAVYYCAKARTGWSLAVPSFGSWGQGTQVTVSS

Tests used:
[1] = target: Human recombinant fibroblast activation protein alpha (human, UniProt Q12884, glycosylated (sites not given)); assay: cross-linking + other: mass photometry
Chain of Human recombinant fibroblast activation protein alpha (Q12884 27-760): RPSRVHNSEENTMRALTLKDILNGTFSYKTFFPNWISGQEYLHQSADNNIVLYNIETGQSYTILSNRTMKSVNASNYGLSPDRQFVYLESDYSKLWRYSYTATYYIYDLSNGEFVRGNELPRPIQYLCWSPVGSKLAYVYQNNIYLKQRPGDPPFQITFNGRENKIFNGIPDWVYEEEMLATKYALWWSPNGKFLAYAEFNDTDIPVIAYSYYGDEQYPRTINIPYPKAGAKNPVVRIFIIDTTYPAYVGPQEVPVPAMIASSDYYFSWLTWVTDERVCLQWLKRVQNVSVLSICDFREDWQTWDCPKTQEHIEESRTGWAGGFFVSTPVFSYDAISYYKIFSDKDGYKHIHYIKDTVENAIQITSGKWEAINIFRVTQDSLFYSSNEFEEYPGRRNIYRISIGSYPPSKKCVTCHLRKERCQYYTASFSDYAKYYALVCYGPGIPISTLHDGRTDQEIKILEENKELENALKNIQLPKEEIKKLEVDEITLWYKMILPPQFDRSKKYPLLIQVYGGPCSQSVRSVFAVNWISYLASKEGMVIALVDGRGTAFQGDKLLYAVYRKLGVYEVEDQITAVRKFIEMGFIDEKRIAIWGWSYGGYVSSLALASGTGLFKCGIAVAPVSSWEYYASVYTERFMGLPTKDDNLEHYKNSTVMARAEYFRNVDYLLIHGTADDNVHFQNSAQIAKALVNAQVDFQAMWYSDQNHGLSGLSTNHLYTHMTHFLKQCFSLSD

[2] = target: Biotinylated dipeptidyl peptidase IV (DPP4) (Homo sapiens, UniProt P27487, biotin (site not given)); assay: BLI
Chain of Biotinylated dipeptidyl peptidase IV (DPP4) (P27487 39-766): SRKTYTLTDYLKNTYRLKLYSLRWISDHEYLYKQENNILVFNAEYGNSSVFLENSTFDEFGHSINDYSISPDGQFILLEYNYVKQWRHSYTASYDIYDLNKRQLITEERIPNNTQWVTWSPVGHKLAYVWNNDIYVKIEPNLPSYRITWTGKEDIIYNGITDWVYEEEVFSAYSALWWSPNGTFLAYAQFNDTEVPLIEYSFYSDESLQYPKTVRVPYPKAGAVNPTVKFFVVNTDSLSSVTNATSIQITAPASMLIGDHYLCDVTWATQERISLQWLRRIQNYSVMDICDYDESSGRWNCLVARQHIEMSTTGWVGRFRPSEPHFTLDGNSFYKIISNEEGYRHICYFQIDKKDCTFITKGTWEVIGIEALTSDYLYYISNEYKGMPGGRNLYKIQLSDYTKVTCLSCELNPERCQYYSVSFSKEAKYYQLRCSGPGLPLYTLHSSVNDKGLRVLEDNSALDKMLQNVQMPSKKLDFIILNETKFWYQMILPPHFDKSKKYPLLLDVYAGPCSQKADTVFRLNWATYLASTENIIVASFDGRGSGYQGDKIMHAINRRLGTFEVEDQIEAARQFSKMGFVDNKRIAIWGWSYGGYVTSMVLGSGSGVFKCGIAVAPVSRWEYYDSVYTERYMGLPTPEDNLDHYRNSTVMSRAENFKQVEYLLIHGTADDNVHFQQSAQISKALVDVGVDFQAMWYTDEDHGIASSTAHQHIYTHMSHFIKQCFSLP

Binder	stoichiometry N [1]	binding result [2]
B1	1	–
B2	–	no binding

— PMC11834968 (RSC Chemical Biology, 2025)
